Measured values as given in article PMC4740771, “Nucleotide-dependent assembly of the peroxisomal receptor export complex” (Scientific Reports, 2016).

Tests used:
[1] = biological target: T1, HisPex6p (S. cerevisiae, UniProt P33760 1-1030); assay: pull-down; GST-Pex15p(1-315)His incubated with purified proteins, loaded on GSH-agarose, eluted with glutathione; 5 mM ATP; Coomassie and immunoblot, signal intensities of load and eluate; conditions: both partners purified
T1 construct: Pex6p, type II AAA-ATPase peroxin of yeast; also called single Pex6p; isolated Pex6p; source: E. coli Tuner (DE3), purified (NiNTA-agarose; with HisPex1pGST also GSH-agarose and size exclusion); not shown: His6, N-terminal, kept
T1 sequence (looked up): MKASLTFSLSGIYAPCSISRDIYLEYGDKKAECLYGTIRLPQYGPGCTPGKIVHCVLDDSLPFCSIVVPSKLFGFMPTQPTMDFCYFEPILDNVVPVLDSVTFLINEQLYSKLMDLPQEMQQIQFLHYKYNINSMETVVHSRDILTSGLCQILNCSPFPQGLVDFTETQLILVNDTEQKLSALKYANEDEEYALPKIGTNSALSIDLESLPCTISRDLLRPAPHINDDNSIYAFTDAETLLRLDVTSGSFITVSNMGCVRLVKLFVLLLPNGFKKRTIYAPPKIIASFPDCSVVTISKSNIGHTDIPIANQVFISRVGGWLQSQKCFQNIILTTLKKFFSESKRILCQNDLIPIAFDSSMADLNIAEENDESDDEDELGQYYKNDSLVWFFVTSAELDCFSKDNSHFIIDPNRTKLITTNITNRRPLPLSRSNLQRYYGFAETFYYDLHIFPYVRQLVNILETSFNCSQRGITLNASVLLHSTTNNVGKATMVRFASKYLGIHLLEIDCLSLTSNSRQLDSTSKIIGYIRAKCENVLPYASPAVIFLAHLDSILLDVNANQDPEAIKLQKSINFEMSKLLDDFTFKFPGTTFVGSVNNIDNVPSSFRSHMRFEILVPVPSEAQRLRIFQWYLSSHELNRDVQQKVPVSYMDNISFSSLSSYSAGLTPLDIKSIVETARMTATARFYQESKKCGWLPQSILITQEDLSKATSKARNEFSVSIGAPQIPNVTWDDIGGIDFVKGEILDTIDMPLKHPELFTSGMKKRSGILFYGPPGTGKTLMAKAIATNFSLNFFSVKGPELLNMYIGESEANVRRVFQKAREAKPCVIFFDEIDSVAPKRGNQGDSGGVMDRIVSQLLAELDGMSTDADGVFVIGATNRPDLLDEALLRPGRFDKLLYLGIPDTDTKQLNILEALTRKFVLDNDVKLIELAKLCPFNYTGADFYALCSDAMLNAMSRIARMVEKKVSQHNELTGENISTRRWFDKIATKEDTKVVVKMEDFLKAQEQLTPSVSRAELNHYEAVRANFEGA

[2] = biological target: T2, Pex1/6p-complex (recombinant heterohexameric AAA-complex) (S. cerevisiae, UniProt P24004 1-1043; P33760 1-1030); assay: as above; conditions: both partners purified
T2 construct: Pex1p of yeast, as the chain of m3; Pex6p of yeast, as the chain of m2; Described as a trimer of Pex1/6p dimers (heterohexamer, about 700 kDa); Isolated in 5 mM ATP or 5 mM ADP as said for each assay; also called Pex1p/Pex6p-complex; wild-type Pex1/6p; source: E. coli Tuner (DE3), cells mixed and lysed, co-purified (NiNTA-agarose, GSH-agarose, thrombin release, size exclusion); not shown: His6, …

[3] = biological target: T3, Pex1/6pWB complex (wild-type Pex1p with Pex6p E832Q) (S. cerevisiae, UniProt P24004 1-1043; P33760 1-1030, E832Q); assay: as above; conditions: both partners purified
T3 construct: Pex1p of yeast, as the chain of m3; Pex6p of yeast with the Walker B mutation of the D2 domain; also called Pex1p/Pex6pWB; Pex6WB mutant complex; not shown: His6, N-terminal, kept; GST, C-terminal, cleaved; copies: 3 + 3

[4] = biological target: T4, Pex1WB/6p complex (Pex1p E798Q with wild-type Pex6p) (S. cerevisiae, UniProt P24004 1-1043; P33760 1-1030, E798Q); assay: as above; conditions: both partners purified
T4 construct: Pex1p of yeast with the Walker B mutation of the D2 domain; Pex6p of yeast, as the chain of m2; also called Pex1WB^E798Q/6p; not shown: His6, N-terminal, kept; GST, C-terminal, cleaved; copies: 3 + 3

[5] = biological target: the molecule itself; assay: SEC; as a1 but isolated and run in the presence of 5 mM ADP instead of ATP

| Binder | binding result [1] | binding result [2] | binding result [3] | binding result [4] | stoichiometry N [5] |
| --- | --- | --- | --- | --- | --- |
| GST-Pex15p(1-315)His (domain or fragment, S. cerevisiae, UniProt Q08215 1-315, looked up, Pex15p, tail-anchored peroxisomal membrane protein of S. cerevisiae (genomic DNA of strain UTL-7A), cytosolic part, residues 1 to 315; also called cytosolic domain of Pex15p; source: E. coli BL21 (DE3), purified (Glutathione Agarose 4B, dialysis); not shown: GST, N-terminal, kept; His6, C-terminal, kept) MAASEIMNNLPMHSLDSSLRDLLNDDLFIESDESTKSVNDQRSEVFQECVNLFIKRDIKDCLEKMSEVGFIDITVFKSNPMILDLFVSACDIMPSFTKLGLTLQSEILNIFTLDTPQCIETRKIILGDLSKLLVINKFFRCCIKVIQFNLTDHTEQEEKTLELESIMSDFIFVYITKMRTTIDVVGLQELIEIFIFQVKVKLHHKKPSPNMYWALCKTLPKLSPTLKGLYLSKDVSIEDAILNSIDNKIQKDKAKSKGKQRGVKQKIHHFHEPMLHNSSEEQVKVEDAFNQRTSTDSRLQSTGTAPRKKNNDITV | binds | binds | binds | binds | – |
| HisPex1p released from HisPex1pGST by thrombin (natural protein, S. cerevisiae, UniProt P24004 1-1043, looked up, Pex1p, type II AAA-ATPase peroxin of yeast; The GST tag held the complex on GSH-agarose during purification and stayed on the column after thrombin cleavage; source: E. coli Tuner (DE3), co-purified with HisPex6p (NiNTA-agarose, GSH-agarose, thrombin release); not shown: His6, N-terminal, kept; GST, C-terminal, cleaved) MTTTKRLKFENLRIQFSNAIVGNFLRLPHSIINVLESTNYAIQEFGIAVHSHNSDIPIVHLGWDGHDSGSSENVVLINPVLATVYDLNQKSPLVDLYIQRYDHTHLATEVYVTPETSDDWEIIDANAMRFQNGEILHQTRIVTPGETLICYLEGIVTKFKIDRVEPSMKSARITDGSLVVVAPKVNKTRLVKAEYGHSNKTILKNGAIQLLKKVILRSTVCKMDFPKDNLFVVYISDGAQLPSQKGYASIVKCSLRQSKKSDSDNKSVGIPSKKIGVFIKCDSQIPENHIALSSHLWDAFFTHPMNGAKIKLEFLQMNQANIISGRNATVNIKYFGKDVPTKSGDQYSKLLGGSLLTNNLILPTEQIIIEIKKGESEQQLCNLNEISNESVQWKVTQMGKEEVKDIIERHLPKHYHVKETGEVSRTSKDEDDFITVNSIKKEMVNYLTSPIIATPAIILDGKQGIGKTRLLKELINEVEKDHHIFVKYADCETLHETSNLDKTQKLIMEWCSFCYWYGPSLIVLDNVEALFGKPQANDGDPSNNGQWDNASKLLNFFINQVTKIFNKDNKRIRVLFSGKQKTQINPLLFDKHFVSETWSLRAPDKHARAKLLEYFFSKNQIMKLNRDLQFSDLSLETEGFSPLDLEIFTEKIFYDLQLERDCDNVVTRELFSKSLSAFTPSALRGVKLTKETNIKWGDIGALANAKDVLLETLEWPTKYEPIFVNCPLRLRSGILLYGYPGCGKTLLASAVAQQCGLNFISVKGPEILNKFIGASEQNIRELFERAQSVKPCILFFDEFDSIAPKRGHDSTGVTDRVVNQLLTQMDGAEGLDGVYILAATSRPDLIDSALLRPGRLDKSVICNIPTESERLDILQAIVNSKDKDTGQKKFALEKNADLKLIAEKTAGFSGADLQGLCYNAYLKSVHRWLSAADQSEVVPGNDNIEYFSINEHGRREENRLRLKTLLQQDVVHETKTSTSAASELTAVVTINDLLEACQETKPSISTSELVKLRGIYDRFQKDRNGEMPNGENSIDIGSRLSLM | – | – | – | – | 3 |
